Measured values as given in patent US20250327097A1, “ORGANISMS PRODUCING LESS CROTONIC ACID” (Global Bioenergies, priority 2021, published 2025).

System: 3-methylcrotonic acid
Assay type: biochemical, Yersinia frederiksenii
Parameters: key: “+” representing a low increase in activity; “++++” representing a high increase in activity

Molecule	Activity relative to WT
I283T-P284D-N287P-S322T-N388M-C430N-L432F-L434W-S436N-dG462-A463I (protein) MFLKSLREQINLLKRQGDLRIINRPVDSYLEAAAIIRRSTETKAPVPLMTNIKGYPGCSIVGGLAALSSNPEYPLSRVAMSLGLSTTASAQSIVQYLIDGLKKTPYLPVEIDSNSAPCKQNILRGEDASLAHFPIPQVHQHDGNRYVNTWGVFIVESPDGQWCNWSIQRVQYLNDRQMIALVFPSQHISDIWEEWVKIGKPMPYALVQGCEPIVPYIAGLPLLERNVNEAEYIGALYGKGIEVVKCETHDLRVPASSEVVIEGYFAITREGVEGPFGEFAGYTDNEPSLQPILSITAISWQDDPIWPVVAEGKPVDEYHTCTGIGDAAAIQNVLLTANLPVSFVWVPLYSACHLMIVSINRHWRQTHPDLTSEQLTKKVGDVIHQTRMSIKLPKIVVLDDDVDPADTESLLWALATRIHPERKRYFYESNIFPWLNCYSEEERHNRKGKRVIIDALLPENHGIISSFDYAYPDDIKQRVLMHWETDFSHD	++++
I283T-P284D-N287P-S322T-N388M-C430N-L432F-L434W-S436N-dG462-S465V (protein) MFLKSLREQINLLKRQGDLRIINRPVDSYLEAAAIIRRSTETKAPVPLMTNIKGYPGCSIVGGLAALSSNPEYPLSRVAMSLGLSTTASAQSIVQYLIDGLKKTPYLPVEIDSNSAPCKQNILRGEDASLAHFPIPQVHQHDGNRYVNTWGVFIVESPDGQWCNWSIQRVQYLNDRQMIALVFPSQHISDIWEEWVKIGKPMPYALVQGCEPIVPYIAGLPLLERNVNEAEYIGALYGKGIEVVKCETHDLRVPASSEVVIEGYFAITREGVEGPFGEFAGYTDNEPSLQPILSITAISWQDDPIWPVVAEGKPVDEYHTCTGIGDAAAIQNVLLTANLPVSFVWVPLYSACHLMIVSINRHWRQTHPDLTSEQLTKKVGDVIHQTRMSIKLPKIVVLDDDVDPADTESLLWALATRIHPERKRYFYESNIFPWLNCYSEEERHNRKGKRVIIDALLPENHGAIVSFDYAYPDDIKQRVLMHWETDFSHD	++++
I283T-P284D-N287P-S322T-N388M-C430N-L432F-L434W-S436N-dG462-A463F (protein) MFLKSLREQINLLKRQGDLRIINRPVDSYLEAAAIIRRSTETKAPVPLMTNIKGYPGCSIVGGLAALSSNPEYPLSRVAMSLGLSTTASAQSIVQYLIDGLKKTPYLPVEIDSNSAPCKQNILRGEDASLAHFPIPQVHQHDGNRYVNTWGVFIVESPDGQWCNWSIQRVQYLNDRQMIALVFPSQHISDIWEEWVKIGKPMPYALVQGCEPIVPYIAGLPLLERNVNEAEYIGALYGKGIEVVKCETHDLRVPASSEVVIEGYFAITREGVEGPFGEFAGYTDNEPSLQPILSITAISWQDDPIWPVVAEGKPVDEYHTCTGIGDAAAIQNVLLTANLPVSFVWVPLYSACHLMIVSINRHWRQTHPDLTSEQLTKKVGDVIHQTRMSIKLPKIVVLDDDVDPADTESLLWALATRIHPERKRYFYESNIFPWLNCYSEEERHNRKGKRVIIDALLPENHGFISSFDYAYPDDIKQRVLMHWETDFSHD	++++
I283T-P284D-N287P-S322T-N388M-C430N-L432F-L434W-S436N-H461T-dG462 (protein) MFLKSLREQINLLKRQGDLRIINRPVDSYLEAAAIIRRSTETKAPVPLMTNIKGYPGCSIVGGLAALSSNPEYPLSRVAMSLGLSTTASAQSIVQYLIDGLKKTPYLPVEIDSNSAPCKQNILRGEDASLAHFPIPQVHQHDGNRYVNTWGVFIVESPDGQWCNWSIQRVQYLNDRQMIALVFPSQHISDIWEEWVKIGKPMPYALVQGCEPIVPYIAGLPLLERNVNEAEYIGALYGKGIEVVKCETHDLRVPASSEVVIEGYFAITREGVEGPFGEFAGYTDNEPSLQPILSITAISWQDDPIWPVVAEGKPVDEYHTCTGIGDAAAIQNVLLTANLPVSFVWVPLYSACHLMIVSINRHWRQTHPDLTSEQLTKKVGDVIHQTRMSIKLPKIVVLDDDVDPADTESLLWALATRIHPERKRYFYESNIFPWLNCYSEEERHNRKGKRVIIDALLPENTGAISSFDYAYPDDIKQRVLMHWETDFSHD	++++
I283T-P284D-N287P-S322T-N388M-C430N-L432F-L434W-S436N-dG462-A463S (protein) MFLKSLREQINLLKRQGDLRIINRPVDSYLEAAAIIRRSTETKAPVPLMTNIKGYPGCSIVGGLAALSSNPEYPLSRVAMSLGLSTTASAQSIVQYLIDGLKKTPYLPVEIDSNSAPCKQNILRGEDASLAHFPIPQVHQHDGNRYVNTWGVFIVESPDGQWCNWSIQRVQYLNDRQMIALVFPSQHISDIWEEWVKIGKPMPYALVQGCEPIVPYIAGLPLLERNVNEAEYIGALYGKGIEVVKCETHDLRVPASSEVVIEGYFAITREGVEGPFGEFAGYTDNEPSLQPILSITAISWQDDPIWPVVAEGKPVDEYHTCTGIGDAAAIQNVLLTANLPVSFVWVPLYSACHLMIVSINRHWRQTHPDLTSEQLTKKVGDVIHQTRMSIKLPKIVVLDDDVDPADTESLLWALATRIHPERKRYFYESNIFPWLNCYSEEERHNRKGKRVIIDALLPENHGSISSFDYAYPDDIKQRVLMHWETDFSHD	++++
I283T-P284D-N287P-S322T-N388M-C430N-L432F-L434W-S436N-H461V-dG462 (protein) MFLKSLREQINLLKRQGDLRIINRPVDSYLEAAAIIRRSTETKAPVPLMTNIKGYPGCSIVGGLAALSSNPEYPLSRVAMSLGLSTTASAQSIVQYLIDGLKKTPYLPVEIDSNSAPCKQNILRGEDASLAHFPIPQVHQHDGNRYVNTWGVFIVESPDGQWCNWSIQRVQYLNDRQMIALVFPSQHISDIWEEWVKIGKPMPYALVQGCEPIVPYIAGLPLLERNVNEAEYIGALYGKGIEVVKCETHDLRVPASSEVVIEGYFAITREGVEGPFGEFAGYTDNEPSLQPILSITAISWQDDPIWPVVAEGKPVDEYHTCTGIGDAAAIQNVLLTANLPVSFVWVPLYSACHLMIVSINRHWRQTHPDLTSEQLTKKVGDVIHQTRMSIKLPKIVVLDDDVDPADTESLLWALATRIHPERKRYFYESNIFPWLNCYSEEERHNRKGKRVIIDALLPENVGAISSFDYAYPDDIKQRVLMHWETDFSHD	++++
I283T-P284D-N287P-S322T-N388M-C430N-L432F-L434W-S436N-H461A-dG462 (protein) MFLKSLREQINLLKRQGDLRIINRPVDSYLEAAAIIRRSTETKAPVPLMTNIKGYPGCSIVGGLAALSSNPEYPLSRVAMSLGLSTTASAQSIVQYLIDGLKKTPYLPVEIDSNSAPCKQNILRGEDASLAHFPIPQVHQHDGNRYVNTWGVFIVESPDGQWCNWSIQRVQYLNDRQMIALVFPSQHISDIWEEWVKIGKPMPYALVQGCEPIVPYIAGLPLLERNVNEAEYIGALYGKGIEVVKCETHDLRVPASSEVVIEGYFAITREGVEGPFGEFAGYTDNEPSLQPILSITAISWQDDPIWPVVAEGKPVDEYHTCTGIGDAAAIQNVLLTANLPVSFVWVPLYSACHLMIVSINRHWRQTHPDLTSEQLTKKVGDVIHQTRMSIKLPKIVVLDDDVDPADTESLLWALATRIHPERKRYFYESNIFPWLNCYSEEERHNRKGKRVIIDALLPENAGAISSFDYAYPDDIKQRVLMHWETDFSHD	++++
N388M-K394R-C430N-L432F-L434W-S436N-H444R (protein) MFLKSLREQINLLKRQGDLRIINRPVDSYLEAAAIIRRSTETKAPVPLMTNIKGYPGCSIVGGLAALSSNPEYPLSRVAMSLGLSTTASAQSIVQYLIDGLKKTPYLPVEIDSNSAPCKQNILRGEDASLAHFPIPQVHQHDGNRYVNTWGVFIVESPDGQWCNWSIQRVQYLNDRQMIALVFPSQHISDIWEEWVKIGKPMPYALVQGCEPIVPYIAGLPLLERNVNEAEYIGALYGKGIEVVKCETHDLRVPASSEVVIEGYFAITREGVEGPFGEFAGYIPNENSLQPILSITAISWQDDPIWPVVAEGKPVDEYHTCSGIGDAAAIQNVLLTANLPVSFVWVPLYSACHLMIVSINRHWRQTHPDLTSEQLTKKVGDVIHQTRMSIKLPRIVVLDDDVDPADTESLLWALATRIHPERKRYFYESNIFPWLNCYSEEERRNRKGKRVIIDALLPENHGAISSFDYAYPDDIKQRVLMHWETDFSHD	+
I283T-P284D-N287P-S322T-N388M-C430N-L432F-L434W-S436N-H461Y-dG462 (protein) MFLKSLREQINLLKRQGDLRIINRPVDSYLEAAAIIRRSTETKAPVPLMTNIKGYPGCSIVGGLAALSSNPEYPLSRVAMSLGLSTTASAQSIVQYLIDGLKKTPYLPVEIDSNSAPCKQNILRGEDASLAHFPIPQVHQHDGNRYVNTWGVFIVESPDGQWCNWSIQRVQYLNDRQMIALVFPSQHISDIWEEWVKIGKPMPYALVQGCEPIVPYIAGLPLLERNVNEAEYIGALYGKGIEVVKCETHDLRVPASSEVVIEGYFAITREGVEGPFGEFAGYTDNEPSLQPILSITAISWQDDPIWPVVAEGKPVDEYHTCTGIGDAAAIQNVLLTANLPVSFVWVPLYSACHLMIVSINRHWRQTHPDLTSEQLTKKVGDVIHQTRMSIKLPKIVVLDDDVDPADTESLLWALATRIHPERKRYFYESNIFPWLNCYSEEERHNRKGKRVIIDALLPENYGAISSFDYAYPDDIKQRVLMHWETDFSHD	++++
I283T-P284D-N287P-S322T-N388M-C430N-L432F-L434W-S436N-dG462-A463T (protein) MFLKSLREQINLLKRQGDLRIINRPVDSYLEAAAIIRRSTETKAPVPLMTNIKGYPGCSIVGGLAALSSNPEYPLSRVAMSLGLSTTASAQSIVQYLIDGLKKTPYLPVEIDSNSAPCKQNILRGEDASLAHFPIPQVHQHDGNRYVNTWGVFIVESPDGQWCNWSIQRVQYLNDRQMIALVFPSQHISDIWEEWVKIGKPMPYALVQGCEPIVPYIAGLPLLERNVNEAEYIGALYGKGIEVVKCETHDLRVPASSEVVIEGYFAITREGVEGPFGEFAGYTDNEPSLQPILSITAISWQDDPIWPVVAEGKPVDEYHTCTGIGDAAAIQNVLLTANLPVSFVWVPLYSACHLMIVSINRHWRQTHPDLTSEQLTKKVGDVIHQTRMSIKLPKIVVLDDDVDPADTESLLWALATRIHPERKRYFYESNIFPWLNCYSEEERHNRKGKRVIIDALLPENHGTISSFDYAYPDDIKQRVLMHWETDFSHD	++++
